Blank lines part the entries; values can stand above or below the substance they belong to.
Key:
[1] = target: CAMSAP3/Marshalin-Ld, V5-His tagged (mouse) (UniProt Q80VC9)
[2] = target: CKK1, CKK domain construct of mouse CAMSAP3/Marshalin-Ld (residues 1020–1253) (mouse)
[3] = target: CKK domain of mouse CAMSAP3/Marshalin-Ld (CKK1 or CKK2, not told for this experiment) (UniProt Q80VC9); assay: GST pull-down; details: n = 4; parent: est. 1.0; read off a plot

decrease of the percent of OK cells with type III (long strings) CAMSAP3/Marshalin-Ld pattern on co-expression of CDH23-C1-GFP, against GFP (54.1% type III), 24 hours after co-transfection [1]: 21.3% | percent of OK cells with CKK1-induced MT bundles, CKK1 (V5-His) co-expressed with CDH23-C1-GFP, 44 to 68 hours after transfection (19.9% with GFP) [2]: 5.5%
Substance: GST-tagged CDH23-C1 (mouse cadherin 23, C isoform, subtype 1) (natural protein)

response (relative intensity) [3]: 0.65
Substance: GST-CDH23-C_1–67 (first 67 residues of mouse CDH23-C; CKK binding motif, CBM) R55H

decrease of the percent of OK cells with type III (long strings) CAMSAP3/Marshalin-Ld pattern on co-expression of CDH23-C2-GFP, against GFP (54.1% type III), 24 hours after co-transfection [1]: 20%
Substance: GST-tagged CDH23-C2 (mouse cadherin 23, C isoform, subtype 2) (natural protein)

Reference: paper PMC4923861
